Laboratory results: article PMC3076715
Read-outs that look alike come from different tables or passages of the source.

Legend:
Experiment in all cases: fluorescence polarization
[1] = target: M.SssI (UniProt P15840 1-386)
[2] = target: T1, Dnmt3a-CD (murine, UniProt O88508 608-908)
[3] = target: T1, Dnmt3a-CD; remark: listed apart in the source
[4] = target: T1, Dnmt3a-CD; remark: listed apart in the source

T1 sequence (O88508 608-908): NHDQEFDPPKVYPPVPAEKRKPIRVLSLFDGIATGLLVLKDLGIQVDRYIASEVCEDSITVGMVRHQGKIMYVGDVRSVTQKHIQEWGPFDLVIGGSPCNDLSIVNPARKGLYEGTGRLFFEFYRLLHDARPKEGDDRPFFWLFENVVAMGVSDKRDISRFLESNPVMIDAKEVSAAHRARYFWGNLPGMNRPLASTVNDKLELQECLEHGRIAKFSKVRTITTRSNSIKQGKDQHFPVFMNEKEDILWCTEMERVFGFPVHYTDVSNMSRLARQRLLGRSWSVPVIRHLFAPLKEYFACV
M.SssI, sequence (P15840 whole entry): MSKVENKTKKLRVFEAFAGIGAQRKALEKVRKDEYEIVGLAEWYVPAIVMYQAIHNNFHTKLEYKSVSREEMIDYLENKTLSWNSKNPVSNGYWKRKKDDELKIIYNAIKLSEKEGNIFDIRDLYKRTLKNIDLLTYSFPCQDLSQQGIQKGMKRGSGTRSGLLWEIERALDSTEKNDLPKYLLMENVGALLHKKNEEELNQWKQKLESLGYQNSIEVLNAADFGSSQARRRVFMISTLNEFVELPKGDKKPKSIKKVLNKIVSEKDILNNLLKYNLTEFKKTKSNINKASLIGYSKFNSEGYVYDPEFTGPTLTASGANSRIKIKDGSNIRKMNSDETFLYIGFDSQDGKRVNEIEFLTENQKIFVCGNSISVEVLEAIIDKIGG

B1: GCGC/CGCG (dsDNA)
DNA 1: GAGCCAAGCGCACTCTGA
DNA 2: TCAGAGTGCGCTTGGCTC
Q: Does B1 bind [1]?
A: binds

Q: Does B1 bind [2]?
A: binds

B2: GCGC/CGMG (dsDNA)
DNA 1: GAGCCAAGCGCACTCTGA
DNA 2: TCAGAGTGCGCTTGGCTC
modifications: 5-methylcytosine at strand 2 position 9
Q: Does B2 bind [3]?
A: binds

B3: GCB+C/CGCG (dsDNA)
DNA 1: GAGCCAAGCGCACTCTGA
DNA 2: TCAGAGTGCGCTTGGCTC
modifications: (+)-trans-anti-B[a]PDE-N2-dG at strand 1 position 10
Q: Does B3 bind [4]?
A: binds
